Laboratory results as given in patent publication US20230218738A1 (Pfizer, published 2023).

T1: RSV F protein mutant pXCS852 (RSV A2, UniProt P03420 26-109)
T1 chain 1: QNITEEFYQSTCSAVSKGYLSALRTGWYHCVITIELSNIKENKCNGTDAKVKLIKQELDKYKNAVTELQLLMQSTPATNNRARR
T1 chain 2: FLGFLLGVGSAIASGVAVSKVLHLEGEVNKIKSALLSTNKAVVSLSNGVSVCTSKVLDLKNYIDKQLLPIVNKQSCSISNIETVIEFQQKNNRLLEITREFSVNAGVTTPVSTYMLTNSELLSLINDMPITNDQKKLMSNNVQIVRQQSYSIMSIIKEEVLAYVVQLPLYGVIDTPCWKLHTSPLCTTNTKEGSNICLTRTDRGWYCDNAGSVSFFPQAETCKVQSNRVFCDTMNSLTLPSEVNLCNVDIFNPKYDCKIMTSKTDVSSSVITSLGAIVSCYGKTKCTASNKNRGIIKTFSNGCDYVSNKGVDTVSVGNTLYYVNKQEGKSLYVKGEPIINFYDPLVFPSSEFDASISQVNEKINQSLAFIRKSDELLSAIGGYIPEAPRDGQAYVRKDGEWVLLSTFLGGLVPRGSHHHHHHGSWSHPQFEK

T2: RSV F protein mutant pXCS738 (RSV A2, UniProt P03420 26-109)
T2 chain 1: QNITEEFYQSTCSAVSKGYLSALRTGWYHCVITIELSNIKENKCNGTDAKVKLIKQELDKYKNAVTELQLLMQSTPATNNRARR
T2 chain 2: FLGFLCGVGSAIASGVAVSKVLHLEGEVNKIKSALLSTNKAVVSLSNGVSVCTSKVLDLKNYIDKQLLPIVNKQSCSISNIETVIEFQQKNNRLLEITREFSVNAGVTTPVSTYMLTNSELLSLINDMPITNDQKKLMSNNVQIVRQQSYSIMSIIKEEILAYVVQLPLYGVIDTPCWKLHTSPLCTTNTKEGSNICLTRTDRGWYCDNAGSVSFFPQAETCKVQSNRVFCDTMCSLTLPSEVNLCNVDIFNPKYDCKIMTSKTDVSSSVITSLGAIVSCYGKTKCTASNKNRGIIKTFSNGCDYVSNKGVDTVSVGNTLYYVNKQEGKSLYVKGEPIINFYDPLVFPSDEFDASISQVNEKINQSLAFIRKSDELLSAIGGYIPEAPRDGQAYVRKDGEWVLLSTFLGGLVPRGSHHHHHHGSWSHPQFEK

T3: RSV F protein mutant pXCS785 (RSV A2, UniProt P03420 26-109)
T3 chain 1: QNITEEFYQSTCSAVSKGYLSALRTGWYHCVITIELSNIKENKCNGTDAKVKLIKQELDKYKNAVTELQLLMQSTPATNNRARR
T3 chain 2: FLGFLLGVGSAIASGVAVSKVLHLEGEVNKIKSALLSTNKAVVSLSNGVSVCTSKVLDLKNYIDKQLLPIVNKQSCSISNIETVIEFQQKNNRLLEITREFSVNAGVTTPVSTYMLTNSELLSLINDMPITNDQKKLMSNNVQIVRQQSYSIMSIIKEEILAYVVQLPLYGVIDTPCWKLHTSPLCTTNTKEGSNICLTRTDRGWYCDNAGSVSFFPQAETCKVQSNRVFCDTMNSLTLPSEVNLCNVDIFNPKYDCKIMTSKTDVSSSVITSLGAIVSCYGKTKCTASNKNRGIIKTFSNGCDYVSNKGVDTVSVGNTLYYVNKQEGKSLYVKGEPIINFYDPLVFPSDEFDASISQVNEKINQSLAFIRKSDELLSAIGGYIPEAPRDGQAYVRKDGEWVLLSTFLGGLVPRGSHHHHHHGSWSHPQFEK

T4: RSV F protein mutant pXCS830 (RSV A2, UniProt P03420 26-109)
T4 chain 1: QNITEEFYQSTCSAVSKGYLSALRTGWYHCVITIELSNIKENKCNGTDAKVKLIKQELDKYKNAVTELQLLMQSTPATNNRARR
T4 chain 2: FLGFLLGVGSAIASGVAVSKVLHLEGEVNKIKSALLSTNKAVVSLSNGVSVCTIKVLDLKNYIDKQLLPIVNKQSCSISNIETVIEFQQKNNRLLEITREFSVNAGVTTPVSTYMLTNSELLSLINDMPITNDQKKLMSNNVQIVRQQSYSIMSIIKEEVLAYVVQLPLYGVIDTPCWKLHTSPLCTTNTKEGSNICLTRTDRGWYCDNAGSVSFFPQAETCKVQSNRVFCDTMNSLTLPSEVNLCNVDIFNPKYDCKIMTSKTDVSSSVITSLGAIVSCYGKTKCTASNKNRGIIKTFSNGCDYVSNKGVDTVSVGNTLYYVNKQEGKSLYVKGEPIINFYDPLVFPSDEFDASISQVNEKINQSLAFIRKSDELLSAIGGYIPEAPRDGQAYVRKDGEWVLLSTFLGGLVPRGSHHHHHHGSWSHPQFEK

T5: RSV F protein mutant pXCS851 (RSV A2, UniProt P03420 26-109)
T5 chain 1: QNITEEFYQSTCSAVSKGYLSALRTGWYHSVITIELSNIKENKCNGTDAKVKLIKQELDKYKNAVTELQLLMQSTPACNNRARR
T5 chain 2: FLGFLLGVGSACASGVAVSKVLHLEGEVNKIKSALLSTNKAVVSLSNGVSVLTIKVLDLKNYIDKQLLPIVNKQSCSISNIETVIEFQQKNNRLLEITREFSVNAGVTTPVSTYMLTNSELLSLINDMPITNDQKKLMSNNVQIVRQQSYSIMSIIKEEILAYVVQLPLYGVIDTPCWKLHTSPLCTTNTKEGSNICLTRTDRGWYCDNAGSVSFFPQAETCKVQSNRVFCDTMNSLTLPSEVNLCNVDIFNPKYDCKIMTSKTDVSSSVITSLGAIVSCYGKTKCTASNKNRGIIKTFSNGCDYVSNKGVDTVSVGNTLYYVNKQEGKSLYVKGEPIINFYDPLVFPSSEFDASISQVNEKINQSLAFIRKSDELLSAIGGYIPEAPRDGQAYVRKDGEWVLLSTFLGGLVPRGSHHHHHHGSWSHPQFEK


Key:
Test in all cases: BLI (Octet), F on anti-HIS tip, 20 nM mAb
[1] = molecular target: RSV F protein mutant pXCS884 (RSV A2, UniProt P03420 26-109)
[2] = molecular target: T1, RSV F protein mutant pXCS852
[3] = molecular target: T2, RSV F protein mutant pXCS738
[4] = molecular target: RSV F protein mutant pXCS787 (RSV A2, UniProt P03420 26-109)
[5] = molecular target: T3, RSV F protein mutant pXCS785
[6] = molecular target: T4, RSV F protein mutant pXCS830
[7] = molecular target: T5, RSV F protein mutant pXCS851

| Binder | Response (nm shift) [1] | Response (nm shift) [2] | Response (nm shift) [3] | Response (nm shift) [4] | Response (nm shift) [5] | Response (nm shift) [6] | Response (nm shift) [7] |
| --- | --- | --- | --- | --- | --- | --- | --- |
| MPE8 (antibody, V domains shown, also called MPEG) VH: EVQLVESGGGLVKPGGSLRLSCAASGFTFSSYSMNWVRQAPGKGLEWVSSISASSSYSDYADSAKGRFTISRDNAKTSLFLQMNSLRAEDTAIYFCARARATGYSSITPYFDIWGQGTLVTVSS VL: QSVVTQTPSVSGAPGQRVTISCTGSSSNIGAGYDVHWYQQLPGTAPKLLIYDNNNRPSGVPDRFSASKSGTSASLAITGLQAEDEADYYCQSYDRNLSGVFGTGTKVTVL | 0.784 nm | 1.13 nm | 0.741 nm | 0.621 nm | 0.937 nm | 0.923 nm | 1.02 nm |
| AM22 (antibody, V domains shown) VH: QVQLVQSGAEVKKPGATVKVSCKISGHTLIKLSIHWVRQAPGKGLEWMGGYEGEVDEIFYAQKFQHRLTVIADTATDTVYMELGRLTSDDTAVYFCGTLGVTVTEAGLGIDDYWGQGTLVTVSS VL: EIVLTQSPGTLSLSPGERATLSCRASQIVSRNHLAWYQQKPGQAPRLLIFGASSRATGIPVRFSGSGSGTDFTLTINGLAPEDFAVYYCLSSDSSIFTFGPGTKVDFK | 0.323 nm | 0.565 nm | 0.273 nm | 0.225 nm | 0.465 nm | 0.465 nm | 0.508 nm |
